Data taken from the DeepSol protein solubility set.

assay: soluble on expression in E. coli; label from the status in PepcDB or PDB records

Row | Sequence | soluble on expression in E. coli
1 | MSLKKIVIVGAGFAGVSATRLLAKNLKNDAEITVIDKHDFQTSMTQLHEVAASRVEADAVQYHLNRTIGKFNNVKVVKESLVELDKANKKVITDKNSYDYDYLVVSMGGEPNDFGVPGVNEYGFTLWSLEDALKIKAHLKEMVQAAAKEADSEKRKKLLTFSVAGSGFTGIEMAGELIDWRKKASKKYGIPESEFTINIVEMMPTIMNILDRSLADKALVYLQNKNINVLVNHGITAVAQDHITVNVGGRDEEKVVKEIPGNTLIWTTGVQGNTEAEACQLSETERGHRLQANEYMEAIGEENHGIYVAGDVSGYIVPENGRPTPQIVEAAEQTGSTAAKNIIADIKGGEKEGHHHHHH | soluble
2 | MPVGTAEGIYKRRAIGGTGRPECLPYHFHEMQGALAHRGALDYSALPVQGASWSDLDPLEFERFRRFIRESRGQGDKSLLDLPDVELAKALGAVKANHEVRTVRVLGLLLFGKEEALQRFIPTHEVAFQVLRGTRVEVNDFFRWPLLRTMEELLTRFRAWNHEEEVSFGLMRIGVPNYSERAFREGLANALIHRDYTRLGAVHVQWHEDRIEISNPGGFPEGIHLGNLLVAPPRPRNPLLADAFKRAGVVERTGRGIDIIFEEQLRNGRPAPSYEQSTPESVVLVLPGGEANLNFVRLIVEEGQARRPLRLDELLVLNGLWQERQLTTKEAARLIQKTEATARAVLERLVETGLIEARGTGRGRTYHLSASTYRRLGEEAAYVRLKGFEHQQMEQMVLEYVRAHGRITRREAAELCRIGPYQATRLLKRMVEQGKLTPHGVGKGTWYALRS | soluble
3 | MSLSISEKPLSELLRPKDFEDFVGQDHIFGNKGILRRTLKTGNMFSSILYGPPGSGKTSVFSLLKRYFNGEVVYLSSTVHGVSEIKNVLKRGEQLRKYGKKLLLFLDEIHRLNKNQQMVLVSHVERGDIVLVATTTENPSFVIVPALLSRCRILYFKKLSDEDLMKILKKATEVLNIDLEESVEKAIVRHSEGDARKLLNTLEIVHQAFKNKRVTLEDLETLLGNVSGYTKESHYDFASAFIKSMRGSDPNAAVYYLVKMIEMGEDPRFIARRMIIFASEDVGLADPNALHIAVSTSIAVEHVGLPECLMNLVECAVYLSLAPKSNSVYLAMKKVQELPVEDVPLFLRNPVTEEMKKRGYGEGYLYPHDFGGFVKTNYLPEKLKNEVIFQPKRVGFEEELFERLRKLWPEKYGGESMAEVRKELEYKGKKIRIVKGDITREEVDAIVNAANEYLKHGGGVAGAIVRAGGSVIQEESDRIVQERGRVPTGEAVVTSAGKLKAKYVIHTVGPVWRGGSHGEDELLYKAVYNALLRAHELKLKSISMPAISTGIFGFPKERAVGIFSKAIRDFIDQHPDTTLEEIRICNIDEETTKIFEEKFSEGHHHHHH | soluble
4 | AHHHHHHGSQRALVTLTPSESKRLIAKAVVAMDEVQKALKNGFIYIATGTTAAYIAEELLGEKIEKEKWTVGTISKGRTCVTPKTTWPKHLVLYKGKLFEGEPLEALKEMGPEDVFIKGGNAIDINWNVAVFAAAPDGGTIGKTFGWTITKGVFTITPISLEKFVPTPVKESAKLTGIYSFNWGTGLYAALVPIPHAHPVTEVEAYRILAGVEAIPIAAGGAGGAEGSVTLVLEGDDENMEKAKEITKAVKGEPPLEPYTEDCSICPFAKICGLGSGSF | not soluble
5 | MAHHHHHHMHRFRVCALGAAFCVARRWRSGGGPGDRRVRTDWYRCYPSLMEEKDRDMYHCYYPYLFDHGDKMSLYPKIPDNPREWQVEQLQTTYDAIREDKYDAFVRLRAKFPELYQDTYAWDNPPPFGEFNMFYSVRFGMIGVKAFTCKDYDDLGNQFDCTAFWFPDNQIVKHSTRNGDVGTDKVYVGAMNVPVEFHKPHVAAFYKAAGVPVKHVSAGFPVTPDAYAPVGTKLDVRHFKPGQEVTITFQNTDYGYQGVMFRHGFDGGYVWLGDSKWQRRPGCMGAEGQKRIYPGHRMAGQTGASAETYDGVPVWRIDYKNSLIYLPTLIDADVGTYVKFRDTINTKGYTLWNEHRGTPPFPTFIPSEEEDLSKLATDEGQLTSPPLYMYFRDEFAAAQLVTQADVEDAKSAKPATAAPKKKVYDLKKYTEARKKYRKNLQKARKYKLMGVRTRAHEKQQEARRAKILKYKRVKT | not soluble
6 | MTMHETTDRLFEIAKEQGVLKPADIAERLNISQQALKNWESRGIAAKALPEVAKAFGVSETWLRTGEGSRTAPVLIDPDLPHEVKDIHRPMTWSSNDPLPDDDYVFVPYLKESCFKGGVGTYEIPDYNGYRLPFGKSTLKRKGINPDNVFCCTLTGDSMEEKIAEDAAIAVDTGETAIRDGKIYAFAQDGMFRVKYLIRQPGNSVLIRSHNSGFYGDENAPLDSLTVIGRVFWWSVLD | not soluble
7 | MGSDKIHHHHHHMAEAQLSLNLDIKHDASLSDFSGPGWMSIIDAVRQLHVGLIGQLYLFGSPATGKSHLLSAICESFIEMDKSAICLSLNELIHTDVNVLSSLENFSLIAIDDLEVIEQNSQWQEALFHLINRSREGQRQLLFAANKPASELPFQLRDLLTRLAQAPSFKVPTGHDLADREALLQSILRRRGWQFDERIANYLLTEGPHRIGAMMEVLNYIQPMFSNLGRSNISKAVIGDALRTIDEQTLAAELADIAQESQVDNDAADQDQHSQHTMPLDF | not soluble
8 | PLGSQYFLKVLIPSYAAGSIIGKGGQTIVQLQKETGATIKLSKSKDFYPGTTERVCLIQGTIEALNAVHGFIAEKIREMPQNVAKTEPVSILQPQTTVNPDRANQVKIIVPNSTAGLIIGKGGATVKAIMEQSGAWVQLSQKPDGINLQNRVVTVSGEPEQNRKAVELIIQKIQEDPQ | soluble
9 | MTLWDRLSRLVRANLNDLLRRAEDPEKIIEQALLDMKQALREAREQVAEALAEQKRLEREVESHEREAALWEEKAREALKAGREDLAREALRRKKRALDLAEGFKAQLSEHKALTERLMTQLKALEAKIDEAEARKKLLLARKKGVEAAETVRRMESRLDQHPALEAFEEMEARILAMEDRHQALEALDQADLEKEFQALSAEKEVEEDLLRLKRELGQAAAALEHHHHHH | not soluble
10 | AKTPVREILLFDSDEFLQHNAFRAPGAPTLEALRDAEKKVEYFKSIYSNMHKRISTSSTYIDEENLELLNGVTFAFICIDAGTSKKSIVQKLEELDIPFVDVGM | not soluble
11 | MAHHHHHHMATCTLSVARFGRPSTFAHRRVRWLPPYDGNSTCLDWWLPTDAEAADTAADGGAAAIRVRALAVILPGLTGSSKEFYVRRMARQLLRAHMATCVLTSRGVADTHLERPQIFSALFAKDLRHIMQACMTREKVQECLLRRISPLQSSDHHKGAVPIIGVAFSLGGRILTNYVSEQGEAEAPSGFDAVYTITSPHNVSDGAAALRMLLSKLLYGSTLYKRLRAYYERHKNVLQNLPDIDKKLLMDGDSPLVKRLRTVQDFGEFITGPHVGFPGAEAYYVAASSFRRLHHSRMPQVCVVVANDPIYGPPQPAPRWLHLIDMHCGGLVYVEMPVGGHLGFLGCPWSEWTQAPNEMEHLVLRSLIHFIKSADTQAAEAKTNE | soluble
12 | MGSDKIHHHHHHMFVGMDFGTTNSAVALAGADGSVEVLNFAAATGAASTLRSVLAFENARRDAQRRILPLAGHEAIEAYLHGDGDCRFLQSFKSYLTSRSFTSTAIYGAPYSLEELVALIIAQLRRTAEAAGAKVERVVAGRPVRFVAEGGEEEDAYATGRLVEAFAKAGITDVVFEYEPIAAAYYYESTLTRDQTVLVADFGGGTSDFCLIRLGPGRAGLARPEDAIIGTAGVGIAGDAFDRRIVEHGLSGHFGKYTTYVSDGKVLPMPAWVYAKLERWHHVAFLNTPSTMRLLRDLLRQVEHPDQVEQLLALIEHNLGYHLYRAVEQAKRDLSSADETVLRFDHDPVVVERRVTRAEFESWIGKELSAIESCVDGLLDGTGTALAQVDRVFLTGGSSLVPAVRAIFANRFGEDRLSAGGEFISVATGLAQRAREMG | not soluble
13 | VDHLHIVGDVYDRGPYPDKIMDTLMNYHSLDFQWGNHDILWMGAASGSRVCAANVIRISARYLNLDILEDSYGISLRPLALFADEIYKNDPCTYFQPKNEDNLNYSKAEITQIARMHKAISIIQFKLEGEIINRRKEFDMNHRLLLQMIDYKKGTIHLKGKDYQLLDTHFPTIDPNDPYKLTKEEKELIEKITASFKNCRRLQKHVQFLYSKGSMFLTYNGNLLYHGCIPLYEDGTFMEMKLRGENFSGRELLEQFEILTREAYVRKPGTKEKKYACDIVWYLWTGAVSSLFGKSEMTTFERYFIAEKETHKEEKNPYYKLRNEETICKQILEEFGLDGECGHIINGHTPVKEGKGESPIKANTKMLVIDGGFAKAYHKETTLAGYTLLYNSY | not soluble
